# Results published in publication PMC3823977, “Protein Interaction Analysis of Senataxin and the ALS4 L389S Mutant Yields Insights into Senataxin Post-Translational Modification and Uncovers Mutant-Specific Binding with a Brain Cytoplasmic RNA-Encoded Peptide” (PLoS ONE, 2013).
# B1: recombinant amino-terminal senataxin (1–600), GST cleaved (domain or fragment, human, UniProt Q7Z333-1 1-600, looked up)
# chain: MSTCCWCTPGGASTIDFLKRYASNTPSGEFQTADEDLCYCLECVAEYHKARDELPFLHEVLWELETLRLINHFEKSMKAEIGDDDELYIVDNNGEMPLFDITGQDFENKLRVPLLEILKYPYLLLHERVNELCVEALCRMEQANCSFQVFDKHPGIYLFLVHPNEMVRRWAILTARNLGKVDRDDYYDLQEVLLCLFKVIELGLLESPDIYTSSVLEKGKLILLPSHMYDTTNYKSYWLGICMLLTILEEQAMDSLLLGSDKQNDFMQSILHTMEREADDDSVDPFWPALHCFMVILDRLGSKVWGQLMDPIVAFQTIINNASYNREIRHIRNSSVRTKLEPESYLDDMVTCSQIVYNYNPEKTKKDSGWRTAICPDYCPNMYEEMETLASVLQSDIGQDMRVHNSTFLWFIPFVQSLMDLKDLGVAYIAQVVNHLYSEVKEVLNQTDAVCDKVTEFFLLILVSVIELHRNKKCLHLLWVSSQQWVEAVVKCAKLPTTAFTRSSEKSSGNCSKGTAMISSLSLHSMPSNSVQLAYVQLIRSLLKEGYQLGQQSLCKRFWDKLNLFLRGNLSLGWQLTSQETHELQSCLKQIIRNIKFKAP
# notes: vector pGEX-4T-2; also called purified senataxin peptide; source: E. coli, GST-tagged, purified after in vitro cleavage
# Biological target: the molecule itself
# Experiment: SEC; size-exclusion chromatography of recombinant senataxin (1–600) after cleavage from GST
protein,measurement,value
B1,stoichiometry N,2
